Tests used:
[1] = biological target: T1, AFP158/HLA-A*02:01 complex (human); assay: SPR, KD ratio to AS170036 VL1VH1;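 note: crude scFv captured on a sensor chip, peptide–HLA complex passed over at several concentrations, association then buffer dissociation, KD derived from on- and off-rates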
T1 construct: flowed over the chip in SPR; also called AFP158 pro
Description: (§1) The experiment was carried out as follows. The crude scFv protein were captured onto the sensorchip. Different concentrations (320, 160, 40 nM) of AFP158/HLA-A*02:01 complex flowed over the sensorchip surface, and were allowed to bind the antibody fragment for 100 s followed by injection of the running buffer to allow dissociation of the complex. On-rate (kd) and off-rate (kd) were calculated based on association and dissociation curve, and were used to estimate the equilibrium dissociation constant (KD).

[2] = biological target: T1, AFP158/HLA-A*02:01 complex; assay: SPR, scFv captured, pMHC in flow;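 note: complex injected at several concentrations over crude scFv, association then running-buffer dissociation, KD estimated from kinetic on- and off-rate constants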
Description: as §1

| Binder | Affinity increase [1] | Kd [2] |
| --- | --- | --- |
| HP58G (scFv, AS170036 VL1VH1 scFv mutein) scFv: QSALTQPRSVSGSPGQSVTISCAGTSSDVGSENYVSWYQQHPGKAPKLMIYQVNKRASGVPDRFSGSKSGNTASLTISGLQAEDEADYYCASYRSSDHNIVFGGGTKLTVLGGGGSGGGGSGGGGSEVQLVESGGGLVQPGGSLRLSCAASGFTFSSYAMSWVRQAPGKGLEWVSTINSGTGSGYYADSVKGRFTISRDNSKNTLYLQMNSLRAEDTAVYYCAKNFFDGSWFLGPPAMDYWGQGTLVTVSSHHHHHH | 0.9 fold | 320 nM |
| HP110D (scFv, AS170036 VL1VH1 scFv mutein) scFv: QSALTQPRSVSGSPGQSVTISCAGTSSDVGSENYVSWYQQHPGKAPKLMIYQVNKRASGVPDRFSGSKSGNTASLTISGLQAEDEADYYCASYRSSDHNIVFGGGTKLTVLGGGGSGGGGSGGGGSEVQLVESGGGLVQPGGSLRLSCAASGFTFSSYAMSWVRQAPGKGLEWVSTINSGTGSPYYADSVKGRFTISRDNSKNTLYLQMNSLRAEDTAVYYCAKNFFDGSWFLGPDAMDYWGQGTLVTVSSHHHHHH | 0.5 fold | 540 nM |
| HS57N (scFv, AS170036 VL1VH1 scFv mutein) scFv: QSALTQPRSVSGSPGQSVTISCAGTSSDVGSENYVSWYQQHPGKAPKLMIYQVNKRASGVPDRFSGSKSGNTASLTISGLQAEDEADYYCASYRSSDHNIVFGGGTKLTVLGGGGSGGGGSGGGGSEVQLVESGGGLVQPGGSLRLSCAASGFTFSSYAMSWVRQAPGKGLEWVSTINSGTGNPYYADSVKGRFTISRDNSKNTLYLQMNSLRAEDTAVYYCAKNFFDGSWFLGPPAMDYWGQGTLVTVSSHHHHHH | 1.5 fold | 170 nM |
| HP110Q (scFv, AS170036 VL1VH1 scFv mutein) scFv: QSALTQPRSVSGSPGQSVTISCAGTSSDVGSENYVSWYQQHPGKAPKLMIYQVNKRASGVPDRFSGSKSGNTASLTISGLQAEDEADYYCASYRSSDHNIVFGGGTKLTVLGGGGSGGGGSGGGGSEVQLVESGGGLVQPGGSLRLSCAASGFTFSSYAMSWVRQAPGKGLEWVSTINSGTGSPYYADSVKGRFTISRDNSKNTLYLQMNSLRAEDTAVYYCAKNFFDGSWFLGPQAMDYWGQGTLVTVSSHHHHHH | 0.9 fold | 300 nM |
| HS57R (scFv, AS170036 VL1VH1 scFv mutein; also called AS170036 VL1VH1-VHS57R) scFv: QSALTQPRSVSGSPGQSVTISCAGTSSDVGSENYVSWYQQHPGKAPKLMIYQVNKRASGVPDRFSGSKSGNTASLTISGLQAEDEADYYCASYRSSDHNIVFGGGTKLTVLGGGGSGGGGSGGGGSEVQLVESGGGLVQPGGSLRLSCAASGFTFSSYAMSWVRQAPGKGLEWVSTINSGTGRPYYADSVKGRFTISRDNSKNTLYLQMNSLRAEDTAVYYCAKNFFDGSWFLGPPAMDYWGQGTLVTVSSHHHHHH | 2.8 fold | 88 nM |
| HP110A (scFv, AS170036 VL1VH1 scFv mutein) scFv: QSALTQPRSVSGSPGQSVTISCAGTSSDVGSENYVSWYQQHPGKAPKLMIYQVNKRASGVPDRFSGSKSGNTASLTISGLQAEDEADYYCASYRSSDHNIVFGGGTKLTVLGGGGSGGGGSGGGGSEVQLVESGGGLVQPGGSLRLSCAASGFTFSSYAMSWVRQAPGKGLEWVSTINSGTGSPYYADSVKGRFTISRDNSKNTLYLQMNSLRAEDTAVYYCAKNFFDGSWFLGPAAMDYWGQGTLVTVSSHHHHHH | 1.3 fold | 210 nM |
| HS57F (scFv, AS170036 VL1VH1 scFv mutein) scFv: QSALTQPRSVSGSPGQSVTISCAGTSSDVGSENYVSWYQQHPGKAPKLMIYQVNKRASGVPDRFSGSKSGNTASLTISGLQAEDEADYYCASYRSSDHNIVFGGGTKLTVLGGGGSGGGGSGGGGSEVQLVESGGGLVQPGGSLRLSCAASGFTFSSYAMSWVRQAPGKGLEWVSTINSGTGFPYYADSVKGRFTISRDNSKNTLYLQMNSLRAEDTAVYYCAKNFFDGSWFLGPPAMDYWGQGTLVTVSSHHHHHH | 1.4 fold | 180 nM |
| HS57D (scFv, AS170036 VL1VH1 scFv mutein) scFv: QSALTQPRSVSGSPGQSVTISCAGTSSDVGSENYVSWYQQHPGKAPKLMIYQVNKRASGVPDRFSGSKSGNTASLTISGLQAEDEADYYCASYRSSDHNIVFGGGTKLTVLGGGGSGGGGSGGGGSEVQLVESGGGLVQPGGSLRLSCAASGFTFSSYAMSWVRQAPGKGLEWVSTINSGTGDPYYADSVKGRFTISRDNSKNTLYLQMNSLRAEDTAVYYCAKNFFDGSWFLGPPAMDYWGQGTLVTVSSHHHHHH | 1.2 fold | 200 nM |
| HS57H (scFv, AS170036 VL1VH1 scFv mutein; also called AS170036 VL1VH1-VHS57H) scFv: QSALTQPRSVSGSPGQSVTISCAGTSSDVGSENYVSWYQQHPGKAPKLMIYQVNKRASGVPDRFSGSKSGNTASLTISGLQAEDEADYYCASYRSSDHNIVFGGGTKLTVLGGGGSGGGGSGGGGSEVQLVESGGGLVQPGGSLRLSCAASGFTFSSYAMSWVRQAPGKGLEWVSTINSGTGHPYYADSVKGRFTISRDNSKNTLYLQMNSLRAEDTAVYYCAKNFFDGSWFLGPPAMDYWGQGTLVTVSSHHHHHH | 6.9 fold | 35 nM |
| HP110V (scFv, AS170036 VL1VH1 scFv mutein) scFv: QSALTQPRSVSGSPGQSVTISCAGTSSDVGSENYVSWYQQHPGKAPKLMIYQVNKRASGVPDRFSGSKSGNTASLTISGLQAEDEADYYCASYRSSDHNIVFGGGTKLTVLGGGGSGGGGSGGGGSEVQLVESGGGLVQPGGSLRLSCAASGFTFSSYAMSWVRQAPGKGLEWVSTINSGTGSPYYADSVKGRFTISRDNSKNTLYLQMNSLRAEDTAVYYCAKNFFDGSWFLGPVAMDYWGQGTLVTVSSHHHHHH | 0.6 fold | 400 nM |
| HS57Q (scFv, AS170036 VL1VH1 scFv mutein; also called AS170036 VL1VH1-VHS57Q) scFv: QSALTQPRSVSGSPGQSVTISCAGTSSDVGSENYVSWYQQHPGKAPKLMIYQVNKRASGVPDRFSGSKSGNTASLTISGLQAEDEADYYCASYRSSDHNIVFGGGTKLTVLGGGGSGGGGSGGGGSEVQLVESGGGLVQPGGSLRLSCAASGFTFSSYAMSWVRQAPGKGLEWVSTINSGTGQPYYADSVKGRFTISRDNSKNTLYLQMNSLRAEDTAVYYCAKNFFDGSWFLGPPAMDYWGQGTLVTVSSHHHHHH | 2.4 fold | 100 nM |
| HS57A (scFv, AS170036 VL1VH1 scFv mutein) scFv: QSALTQPRSVSGSPGQSVTISCAGTSSDVGSENYVSWYQQHPGKAPKLMIYQVNKRASGVPDRFSGSKSGNTASLTISGLQAEDEADYYCASYRSSDHNIVFGGGTKLTVLGGGGSGGGGSGGGGSEVQLVESGGGLVQPGGSLRLSCAASGFTFSSYAMSWVRQAPGKGLEWVSTINSGTGAPYYADSVKGRFTISRDNSKNTLYLQMNSLRAEDTAVYYCAKNFFDGSWFLGPPAMDYWGQGTLVTVSSHHHHHH | 1.2 fold | 210 nM |
| HP110E (scFv, AS170036 VL1VH1 scFv mutein) scFv: QSALTQPRSVSGSPGQSVTISCAGTSSDVGSENYVSWYQQHPGKAPKLMIYQVNKRASGVPDRFSGSKSGNTASLTISGLQAEDEADYYCASYRSSDHNIVFGGGTKLTVLGGGGSGGGGSGGGGSEVQLVESGGGLVQPGGSLRLSCAASGFTFSSYAMSWVRQAPGKGLEWVSTINSGTGSPYYADSVKGRFTISRDNSKNTLYLQMNSLRAEDTAVYYCAKNFFDGSWFLGPEAMDYWGQGTLVTVSSHHHHHH | 1.8 fold | 150 nM |
| HS57M (scFv, AS170036 VL1VH1 scFv mutein; also called AS170036 VL1VH1-VHS57M) scFv: QSALTQPRSVSGSPGQSVTISCAGTSSDVGSENYVSWYQQHPGKAPKLMIYQVNKRASGVPDRFSGSKSGNTASLTISGLQAEDEADYYCASYRSSDHNIVFGGGTKLTVLGGGGSGGGGSGGGGSEVQLVESGGGLVQPGGSLRLSCAASGFTFSSYAMSWVRQAPGKGLEWVSTINSGTGMPYYADSVKGRFTISRDNSKNTLYLQMNSLRAEDTAVYYCAKNFFDGSWFLGPPAMDYWGQGTLVTVSSHHHHHH | 2.7 fold | 90 nM |
| HP58Q (scFv, AS170036 VL1VH1 scFv mutein) scFv: QSALTQPRSVSGSPGQSVTISCAGTSSDVGSENYVSWYQQHPGKAPKLMIYQVNKRASGVPDRFSGSKSGNTASLTISGLQAEDEADYYCASYRSSDHNIVFGGGTKLTVLGGGGSGGGGSGGGGSEVQLVESGGGLVQPGGSLRLSCAASGFTFSSYAMSWVRQAPGKGLEWVSTINSGTGSQYYADSVKGRFTISRDNSKNTLYLQMNSLRAEDTAVYYCAKNFFDGSWFLGPPAMDYWGQGTLVTVSSHHHHHH | 0.5 fold | 500 nM |
| HP110G (scFv, AS170036 VL1VH1 scFv mutein) scFv: QSALTQPRSVSGSPGQSVTISCAGTSSDVGSENYVSWYQQHPGKAPKLMIYQVNKRASGVPDRFSGSKSGNTASLTISGLQAEDEADYYCASYRSSDHNIVFGGGTKLTVLGGGGSGGGGSGGGGSEVQLVESGGGLVQPGGSLRLSCAASGFTFSSYAMSWVRQAPGKGLEWVSTINSGTGSPYYADSVKGRFTISRDNSKNTLYLQMNSLRAEDTAVYYCAKNFFDGSWFLGPGAMDYWGQGTLVTVSSHHHHHH | 1 fold | 260 nM |
| HP110S (scFv, AS170036 VL1VH1 scFv mutein) scFv: QSALTQPRSVSGSPGQSVTISCAGTSSDVGSENYVSWYQQHPGKAPKLMIYQVNKRASGVPDRFSGSKSGNTASLTISGLQAEDEADYYCASYRSSDHNIVFGGGTKLTVLGGGGSGGGGSGGGGSEVQLVESGGGLVQPGGSLRLSCAASGFTFSSYAMSWVRQAPGKGLEWVSTINSGTGSPYYADSVKGRFTISRDNSKNTLYLQMNSLRAEDTAVYYCAKNFFDGSWFLGPSAMDYWGQGTLVTVSSHHHHHH | 0.8 fold | 300 nM |
| HP110T (scFv, AS170036 VL1VH1 scFv mutein) scFv: QSALTQPRSVSGSPGQSVTISCAGTSSDVGSENYVSWYQQHPGKAPKLMIYQVNKRASGVPDRFSGSKSGNTASLTISGLQAEDEADYYCASYRSSDHNIVFGGGTKLTVLGGGGSGGGGSGGGGSEVQLVESGGGLVQPGGSLRLSCAASGFTFSSYAMSWVRQAPGKGLEWVSTINSGTGSPYYADSVKGRFTISRDNSKNTLYLQMNSLRAEDTAVYYCAKNFFDGSWFLGPTAMDYWGQGTLVTVSSHHHHHH | 1.3 fold | 180 nM |
| HS57K (scFv, AS170036 VL1VH1 scFv mutein; also called AS170036 VL1VH1-VHS57K) scFv: QSALTQPRSVSGSPGQSVTISCAGTSSDVGSENYVSWYQQHPGKAPKLMIYQVNKRASGVPDRFSGSKSGNTASLTISGLQAEDEADYYCASYRSSDHNIVFGGGTKLTVLGGGGSGGGGSGGGGSEVQLVESGGGLVQPGGSLRLSCAASGFTFSSYAMSWVRQAPGKGLEWVSTINSGTGKPYYADSVKGRFTISRDNSKNTLYLQMNSLRAEDTAVYYCAKNFFDGSWFLGPPAMDYWGQGTLVTVSSHHHHHH | 4.4 fold | 56 nM |

From US20240279318A1 (NANJING LEGEND BIOTECH, published 2024)
